Assay results published in the supplement of paper PMC7877785.
± gives the uncertainty stated by the source.

Assay: self-splicing fitness, log relative to wild type (ln ratio); higher = more splicing; Tetrahymena group I intron in knt gene, E. coli kanamycin selection, DiMSum; sequences stand for … in CUCUCU…GGAGGGAAAAGUUAUCAGGCAUGCACCUGGUAGCUAGUCUUUAAACCAAUAGAUUGCAUCGGUUUAAAAGGCAAGACCGUCAAAUUGCGGGAAAGGGGUCAACAGCCGUUCAGUACCAAGUCUCAGGGGAAACUUUGAGAUGGCCUUGCAAAGGGUAUGGUAAUAAGCUGACGGACAUGGUCCUAACCACGCAGCCAAGUCCUAAGUCAACAGAUCUUCUGUUGAUAUGGAUGCAGUUCACAGACUAAAUGUCGGUCGGGGAAGAUGUAUUCUUCUCAUAAGAUAUAGUCGGACCUCUCCUUAAUGGGAGCUAGCGGAUGAAGUGAUGCAACACUGGAGCCGCUGGGAACUAAUUUGUAUGCGAAAGUAUAUUGAUUAGUUUUGGAGUACUCGUGGUCG
Summary of the method: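 DiMSum derived fitness as the error-weighted combination of fold changes across replicates, kanamycin versus no kanamycin, normalised to wild type. E. coli BL21(DE3) held the library, which randomised all eight P1ex-region intron nucleotides within the knt kanamycin-resistance gene on pET-22b(+). Six replicate transformations grew overnight at 37°C or 30°C on LB agar with or without 25 μg/mL kanamycin, also containing 100 μg/mL carbenicillin, 50 μM IPTG and 0.2% rhamnose, and pooled colonies were amplicon-sequenced on an Illumina HiSeq 2500.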

| Sequence | self-splicing fitness (ln) (30 °C) | self-splicing fitness (ln) (37 °C) |
| --- | --- | --- |
| CUGUAGCAAUAUUACGCGUG | -1.41 ± 0.1 | -0.0484 ± 0.12 |
| CUGUAGCAAUAUUACGCUAU | – | -0.73 ± 0.29 |
| CUGUAGCAAUAUUACGCUGU | -3.78 ± 0.36 | -2.53 ± 0.27 |
| CUGUAGCAAUAUUACGGAGA | -2.5 ± 0.21 | -3.56 ± 0.34 |
| CUGUAGCAAUAUUACGGAGC | – | -2.55 ± 0.49 |
| CUGUAGCAAUAUUACGGCAG | -3.85 ± 0.33 | -1.32 ± 0.24 |
| CUGUAGCAAUAUUACGGCUC | -2.55 ± 0.19 | -2.13 ± 0.29 |
| CUGUAGCAAUAUUACGGGAG | -4.83 ± 0.29 | -1.67 ± 0.13 |
| CUGUAGCAAUAUUACGGGGC | -4.95 ± 0.36 | -2.14 ± 0.19 |
| CUGUAGCAAUAUUACGGUAA | -3.63 ± 0.24 | -2.3 ± 0.26 |
| CUGUAGCAAUAUUACGGUCA | -2.29 ± 0.25 | -2.63 ± 0.34 |
| CUGUAGCAAUAUUACGUAAC | -3.09 ± 0.46 | -2.24 ± 0.5 |
| CUGUAGCAAUAUUACGUGCC | -3.49 ± 0.35 | -2.21 ± 0.24 |
| CUGUAGCAAUAUUACGUGUA | -4.12 ± 0.3 | -2.05 ± 0.21 |
| CUGUAGCAAUAUUACGUUUU | -4.23 ± 0.35 | -2.23 ± 0.19 |
| CUUAAGCAAUAUUACGAGAA | -2.01 ± 0.34 | -2.91 ± 0.47 |
| CUUAAGCAAUAUUACGAUAU | -3.29 ± 0.2 | -1.4 ± 0.17 |
| CUUAAGCAAUAUUACGCAGG | -3.05 ± 0.21 | -2.96 ± 0.32 |
| CUUAAGCAAUAUUACGCAGU | -3.71 ± 0.46 | -2.56 ± 0.28 |
| CUUAAGCAAUAUUACGCCCG | -1.46 ± 0.28 | 0.386 ± 0.3 |
| CUUAAGCAAUAUUACGGCAU | -3.68 ± 0.23 | -3.67 ± 0.34 |
| CUUAAGCAAUAUUACGGGAC | -3.6 ± 0.28 | -1.26 ± 0.13 |
| CUUAAGCAAUAUUACGGGGC | -3.68 ± 0.2 | -2.63 ± 0.21 |
| CUUAAGCAAUAUUACGGUCG | 0.0331 ± 0.082 | 0.0238 ± 0.093 |
| CUUAAGCAAUAUUACGUCAA | -3.38 ± 0.35 | -2.33 ± 0.21 |
| CUUAAGCAAUAUUACGUCCA | -2.93 ± 0.48 | -2.34 ± 0.46 |

| Sequence | self-splicing fitness (ln) (30 °C) | self-splicing fitness (ln) (37 °C) |
| --- | --- | --- |
| CUUAAGCAAUAUUACGUGCU | -2.16 ± 0.24 | -2.1 ± 0.18 |
| CUUAAGCAAUAUUACGUGGC | – | 0.00177 ± 0.26 |
| CUUAAGCAAUAUUACGUUAG | -3.59 ± 0.23 | -1.59 ± 0.17 |
| CUUCAGCAAUAUUACGAGGG | -3.48 ± 0.22 | -2.31 ± 0.22 |
| CUUCAGCAAUAUUACGAUGG | -2.3 ± 0.11 | -1.38 ± 0.15 |
| CUUCAGCAAUAUUACGCAUC | -2.85 ± 0.22 | -2.68 ± 0.22 |
| CUUCAGCAAUAUUACGCCAU | -4.2 ± 0.3 | -2.02 ± 0.23 |
| CUUCAGCAAUAUUACGCCGG | -2.73 ± 0.34 | – |
| CUUCAGCAAUAUUACGCGCA | -1.93 ± 0.29 | 0.383 ± 0.28 |
| CUUCAGCAAUAUUACGCUCU | -3.79 ± 0.39 | – |
| CUUCAGCAAUAUUACGGACA | -3.26 ± 0.35 | -2.3 ± 0.26 |
| CUUCAGCAAUAUUACGGAUC | -1.38 ± 0.08 | -0.259 ± 0.1 |
| CUUCAGCAAUAUUACGGGAA | -1.22 ± 0.097 | -2.08 ± 0.1 |
| CUUCAGCAAUAUUACGGGAC | -2.8 ± 0.11 | -0.836 ± 0.12 |
| CUUCAGCAAUAUUACGGGGU | -3.95 ± 0.2 | -2.45 ± 0.25 |
| CUUCAGCAAUAUUACGGGUC | -3.39 ± 0.28 | -0.947 ± 0.25 |
| CUUCAGCAAUAUUACGGUGC | -3.36 ± 0.21 | -1.56 ± 0.31 |
| CUUCAGCAAUAUUACGUCAC | – | -1.41 ± 0.19 |
| CUUCAGCAAUAUUACGUCCG | -0.583 ± 0.056 | -0.437 ± 0.09 |
| CUUCAGCAAUAUUACGUCGG | -1.85 ± 0.15 | -1.79 ± 0.24 |
| CUUCAGCAAUAUUACGUCUG | -2.73 ± 0.12 | -1.48 ± 0.16 |
| CUUCAGCAAUAUUACGUUAG | -1.66 ± 0.071 | -1.25 ± 0.094 |
| CUUCAGCAAUAUUACGUUCA | -3.63 ± 0.26 | -2.04 ± 0.23 |
| CUUGAGCAAUAUUACGAAAA | -2.53 ± 0.38 | -1.92 ± 0.38 |
| CUUGAGCAAUAUUACGAAAC | -4 ± 0.33 | -2.78 ± 0.36 |
| CUUGAGCAAUAUUACGAAUC | -4.03 ± 0.31 | -1.86 ± 0.26 |

| Sequence | self-splicing fitness (ln) (30 °C) | self-splicing fitness (ln) (37 °C) |
| --- | --- | --- |
| CUUGAGCAAUAUUACGACGC | -2.13 ± 0.39 | -1.9 ± 0.46 |
| CUUGAGCAAUAUUACGACUG | -0.383 ± 0.084 | 0.0311 ± 0.12 |
| CUUGAGCAAUAUUACGAGUG | -1.72 ± 0.081 | -0.765 ± 0.093 |
| CUUGAGCAAUAUUACGCCGG | -4.04 ± 0.46 | -1.65 ± 0.47 |
| CUUGAGCAAUAUUACGCGAU | – | 1.12 ± 0.27 |
| CUUGAGCAAUAUUACGCGUU | -4.07 ± 0.39 | -2.14 ± 0.23 |
| CUUGAGCAAUAUUACGGACA | -2.41 ± 0.37 | – |
| CUUGAGCAAUAUUACGGAUA | -3.62 ± 0.4 | -1.76 ± 0.4 |
| CUUGAGCAAUAUUACGGCUU | -3.95 ± 0.22 | -2.41 ± 0.24 |
| CUUGAGCAAUAUUACGGUCG | -1.67 ± 0.15 | -2.3 ± 0.3 |
| CUUGAGCAAUAUUACGGUGG | -2.55 ± 0.13 | -1.52 ± 0.12 |
| CUUGAGCAAUAUUACGUCCA | -3.91 ± 0.39 | -2.55 ± 0.41 |
| CUUGAGCAAUAUUACGUCGG | -2.62 ± 0.11 | -1.04 ± 0.12 |
| CUUGAGCAAUAUUACGUGCG | -2.22 ± 0.13 | -0.809 ± 0.14 |
| CUUGAGCAAUAUUACGUGGC | – | -2.41 ± 0.31 |
| CUUGAGCAAUAUUACGUUCU | -2.75 ± 0.41 | -3.71 ± 0.42 |
| CUUGAGCAAUAUUACGUUUU | -3.92 ± 0.28 | -3.44 ± 0.3 |
| CUUUAGCAAUAUUACGAACA | -3.07 ± 0.41 | – |
| CUUUAGCAAUAUUACGAAUC | -1.01 ± 0.45 | – |
| CUUUAGCAAUAUUACGACGA | – | -1.82 ± 0.24 |
| CUUUAGCAAUAUUACGAGCA | -3.14 ± 0.25 | -3.05 ± 0.3 |
| CUUUAGCAAUAUUACGAUGG | -1.01 ± 0.1 | -0.752 ± 0.13 |
| CUUUAGCAAUAUUACGAUUA | – | -1.92 ± 0.31 |
| CUUUAGCAAUAUUACGCAAC | -1.73 ± 0.24 | – |
| CUUUAGCAAUAUUACGCAGA | – | -2.09 ± 0.3 |
| CUUUAGCAAUAUUACGCCCU | -3.13 ± 0.38 | -3.23 ± 0.25 |

| Sequence | self-splicing fitness (ln) (30 °C) | self-splicing fitness (ln) (37 °C) |
| --- | --- | --- |
| CUUUAGCAAUAUUACGCCUA | -3.11 ± 0.3 | -1.73 ± 0.3 |
| CUUUAGCAAUAUUACGCGGA | -2.48 ± 0.27 | -2.81 ± 0.32 |
| CUUUAGCAAUAUUACGCUUA | -3.33 ± 0.37 | -3.35 ± 0.4 |
| CUUUAGCAAUAUUACGGCAG | -0.944 ± 0.12 | -0.552 ± 0.14 |
| CUUUAGCAAUAUUACGGGGC | -3.44 ± 0.28 | -2.54 ± 0.38 |
| CUUUAGCAAUAUUACGGGGU | -3.02 ± 0.24 | -2.94 ± 0.27 |
| CUUUAGCAAUAUUACGGUAU | -4.49 ± 0.34 | -2.4 ± 0.24 |
| CUUUAGCAAUAUUACGGUGA | – | -2.08 ± 0.3 |
| CUUUAGCAAUAUUACGUAUA | -3.57 ± 0.27 | -2.38 ± 0.49 |
| CUUUAGCAAUAUUACGUCGA | – | -1.96 ± 0.48 |
| CUUUAGCAAUAUUACGUGAC | -1.42 ± 0.19 | -1.53 ± 0.29 |
| CUUUAGCAAUAUUACGUGUG | -1.6 ± 0.094 | -0.61 ± 0.08 |
| CUUUAGCAAUAUUACGUUGA | – | -3.01 ± 0.35 |
| CUUUAGCAAUAUUACGUUUG | -2.43 ± 0.17 | -1.5 ± 0.17 |
| GAAAAGCAAUAUUACGAAUA | -1.57 ± 0.13 | -1.19 ± 0.1 |
| GAAAAGCAAUAUUACGAGGU | -3.97 ± 0.14 | -2.92 ± 0.13 |
| GAAAAGCAAUAUUACGAGUA | -3.92 ± 0.42 | -2.44 ± 0.2 |
| GAAAAGCAAUAUUACGAUAA | -1.58 ± 0.081 | -0.197 ± 0.091 |
| GAAAAGCAAUAUUACGAUGC | -0.709 ± 0.08 | -0.503 ± 0.1 |
| GAAAAGCAAUAUUACGCACG | -0.543 ± 0.09 | -0.904 ± 0.12 |
| GAAAAGCAAUAUUACGCACU | -0.498 ± 0.098 | 0.475 ± 0.1 |
| GAAAAGCAAUAUUACGCAUG | -1.12 ± 0.079 | -0.337 ± 0.1 |
| GAAAAGCAAUAUUACGCAUU | -3.24 ± 0.17 | -0.376 ± 0.11 |
